Data: patent publication US20250026792A1, “SELF-ASSEMBLING PEPTIDES WITH HYALURONIC ACID BINDING DOMAINS AND METHODS OF USE THEREOF” (Northwestern University, priority 2022, published 2025)
The star is where a group is joined. Biotin = O=C1N[C@H]2[C@H](CS[C@H]2CCCCC(=O)*)N1

Experiments:
Test in all cases: plate assay: biotinylated peptide on dried ECM coating (10 ug/cm2), streptavidin-488 fluorescence
[1] = molecular target: T1, collagen type III (human) (human, UniProt P02461 154-1221)
T1 construct: III (human)'; Coated and dried on plates at 10 ug/cm2; also called collagen III
T1 sequence (looked up): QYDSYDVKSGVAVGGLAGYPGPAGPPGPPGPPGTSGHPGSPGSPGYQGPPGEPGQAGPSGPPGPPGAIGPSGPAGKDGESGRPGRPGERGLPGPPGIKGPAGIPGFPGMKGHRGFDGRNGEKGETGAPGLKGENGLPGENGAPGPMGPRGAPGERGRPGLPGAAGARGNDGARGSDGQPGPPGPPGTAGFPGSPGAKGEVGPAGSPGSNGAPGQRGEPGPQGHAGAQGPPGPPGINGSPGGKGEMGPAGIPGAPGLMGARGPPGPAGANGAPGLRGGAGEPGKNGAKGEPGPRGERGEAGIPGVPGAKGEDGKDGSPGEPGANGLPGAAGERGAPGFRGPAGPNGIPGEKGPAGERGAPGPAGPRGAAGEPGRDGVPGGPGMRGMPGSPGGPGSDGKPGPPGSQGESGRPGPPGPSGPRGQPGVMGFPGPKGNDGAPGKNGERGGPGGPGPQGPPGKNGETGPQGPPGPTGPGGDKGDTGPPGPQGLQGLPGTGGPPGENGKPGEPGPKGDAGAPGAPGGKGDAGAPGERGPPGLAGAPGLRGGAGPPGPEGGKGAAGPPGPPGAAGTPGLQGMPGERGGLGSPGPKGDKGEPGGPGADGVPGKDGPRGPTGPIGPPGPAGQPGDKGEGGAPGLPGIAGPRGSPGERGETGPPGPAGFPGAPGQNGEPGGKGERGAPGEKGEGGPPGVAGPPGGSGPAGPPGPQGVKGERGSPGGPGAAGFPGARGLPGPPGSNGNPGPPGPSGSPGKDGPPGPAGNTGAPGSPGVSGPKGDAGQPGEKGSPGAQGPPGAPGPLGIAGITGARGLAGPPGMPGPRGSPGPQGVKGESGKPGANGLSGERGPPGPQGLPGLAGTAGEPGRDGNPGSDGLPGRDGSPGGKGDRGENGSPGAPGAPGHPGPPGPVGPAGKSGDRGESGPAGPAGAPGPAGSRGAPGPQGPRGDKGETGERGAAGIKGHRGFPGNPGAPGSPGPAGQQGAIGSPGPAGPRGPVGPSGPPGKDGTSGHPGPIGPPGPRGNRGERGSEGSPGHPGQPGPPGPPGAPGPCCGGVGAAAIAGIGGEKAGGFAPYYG
Method: (§1) Peptides were incubated 24 hours at 37° C. on collagens I-IV, elastin, hyaluronic acid, and Geltrex. Coatings (10 pig/cm²) were previously dried overnight in milli-Q water. Overall significance was assessed using analysis of variance, with Tukey's multiple comparison post-hoc analysis between ECM groups where n=4.
(§2) N-termini biotinylated peptides were added to coated plates at 0, 1, 2.5, 5 and 10 mg/ml overnight at 37° C. in phosphate buffered saline (PBS), pH 7.4, after which the plates were washed three times with PBS. Fluorescent streptavidin-488 (4 μg/mL) was added to each well and incubated at 37° C. temperature for 24 hours, then thoroughly washed with PBS. The plates were read with a fluorescence microplate reader for fluorescence intensity (Ex 490 nm, Em 525 nm). All data were normalized to the background fluorescence intensity of Streptavidin-488.

collagen type I (rat) = molecular target: T2, collagen type I (rat) (rat, UniProt P02454 152-1207; P02466 86-1125)
T2 construct: Coated and dried on 96-well plates at 10 ug/cm2; also called collagen I
Method: as §1, §2

collagen type IV (mouse) = molecular target: T3, collagen type IV (mouse) (mouse, UniProt P02463 28-1669; P08122 26-1707)
T3 construct: IV (mouse)'; Coated and dried on plates at 10 ug/cm2; also called collagen IV
Method: as §1, §2

elastin (bovine) = molecular target: T4, elastin (bovine) (bovine, UniProt P04985 27-747, limits assumed)
T4 construct: Coated and dried on plates at 10 ug/cm2
T4 sequence (looked up): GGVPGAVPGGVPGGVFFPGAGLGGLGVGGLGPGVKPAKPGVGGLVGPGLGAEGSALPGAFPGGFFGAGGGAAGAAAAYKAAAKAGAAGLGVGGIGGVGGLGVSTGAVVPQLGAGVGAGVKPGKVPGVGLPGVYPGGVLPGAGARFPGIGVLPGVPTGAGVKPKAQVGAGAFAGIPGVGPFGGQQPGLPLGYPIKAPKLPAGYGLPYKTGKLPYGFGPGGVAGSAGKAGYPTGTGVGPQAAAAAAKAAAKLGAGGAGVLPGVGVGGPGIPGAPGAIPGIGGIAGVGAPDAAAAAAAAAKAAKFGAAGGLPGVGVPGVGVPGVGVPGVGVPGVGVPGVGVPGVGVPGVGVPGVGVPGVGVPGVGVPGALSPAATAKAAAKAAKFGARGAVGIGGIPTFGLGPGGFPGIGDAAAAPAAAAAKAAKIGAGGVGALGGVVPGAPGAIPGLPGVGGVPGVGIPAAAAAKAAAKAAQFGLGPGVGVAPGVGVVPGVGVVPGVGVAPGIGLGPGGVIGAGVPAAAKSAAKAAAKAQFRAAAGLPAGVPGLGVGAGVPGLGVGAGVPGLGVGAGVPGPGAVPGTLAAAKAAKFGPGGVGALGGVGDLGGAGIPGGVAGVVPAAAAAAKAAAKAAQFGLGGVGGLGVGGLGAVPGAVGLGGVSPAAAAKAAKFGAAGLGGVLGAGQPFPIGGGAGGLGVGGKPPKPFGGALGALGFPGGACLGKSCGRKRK
Method: as §1, §2

Measured: binding result

T3 sequence (P02463 28-1669, chain 1 of 2): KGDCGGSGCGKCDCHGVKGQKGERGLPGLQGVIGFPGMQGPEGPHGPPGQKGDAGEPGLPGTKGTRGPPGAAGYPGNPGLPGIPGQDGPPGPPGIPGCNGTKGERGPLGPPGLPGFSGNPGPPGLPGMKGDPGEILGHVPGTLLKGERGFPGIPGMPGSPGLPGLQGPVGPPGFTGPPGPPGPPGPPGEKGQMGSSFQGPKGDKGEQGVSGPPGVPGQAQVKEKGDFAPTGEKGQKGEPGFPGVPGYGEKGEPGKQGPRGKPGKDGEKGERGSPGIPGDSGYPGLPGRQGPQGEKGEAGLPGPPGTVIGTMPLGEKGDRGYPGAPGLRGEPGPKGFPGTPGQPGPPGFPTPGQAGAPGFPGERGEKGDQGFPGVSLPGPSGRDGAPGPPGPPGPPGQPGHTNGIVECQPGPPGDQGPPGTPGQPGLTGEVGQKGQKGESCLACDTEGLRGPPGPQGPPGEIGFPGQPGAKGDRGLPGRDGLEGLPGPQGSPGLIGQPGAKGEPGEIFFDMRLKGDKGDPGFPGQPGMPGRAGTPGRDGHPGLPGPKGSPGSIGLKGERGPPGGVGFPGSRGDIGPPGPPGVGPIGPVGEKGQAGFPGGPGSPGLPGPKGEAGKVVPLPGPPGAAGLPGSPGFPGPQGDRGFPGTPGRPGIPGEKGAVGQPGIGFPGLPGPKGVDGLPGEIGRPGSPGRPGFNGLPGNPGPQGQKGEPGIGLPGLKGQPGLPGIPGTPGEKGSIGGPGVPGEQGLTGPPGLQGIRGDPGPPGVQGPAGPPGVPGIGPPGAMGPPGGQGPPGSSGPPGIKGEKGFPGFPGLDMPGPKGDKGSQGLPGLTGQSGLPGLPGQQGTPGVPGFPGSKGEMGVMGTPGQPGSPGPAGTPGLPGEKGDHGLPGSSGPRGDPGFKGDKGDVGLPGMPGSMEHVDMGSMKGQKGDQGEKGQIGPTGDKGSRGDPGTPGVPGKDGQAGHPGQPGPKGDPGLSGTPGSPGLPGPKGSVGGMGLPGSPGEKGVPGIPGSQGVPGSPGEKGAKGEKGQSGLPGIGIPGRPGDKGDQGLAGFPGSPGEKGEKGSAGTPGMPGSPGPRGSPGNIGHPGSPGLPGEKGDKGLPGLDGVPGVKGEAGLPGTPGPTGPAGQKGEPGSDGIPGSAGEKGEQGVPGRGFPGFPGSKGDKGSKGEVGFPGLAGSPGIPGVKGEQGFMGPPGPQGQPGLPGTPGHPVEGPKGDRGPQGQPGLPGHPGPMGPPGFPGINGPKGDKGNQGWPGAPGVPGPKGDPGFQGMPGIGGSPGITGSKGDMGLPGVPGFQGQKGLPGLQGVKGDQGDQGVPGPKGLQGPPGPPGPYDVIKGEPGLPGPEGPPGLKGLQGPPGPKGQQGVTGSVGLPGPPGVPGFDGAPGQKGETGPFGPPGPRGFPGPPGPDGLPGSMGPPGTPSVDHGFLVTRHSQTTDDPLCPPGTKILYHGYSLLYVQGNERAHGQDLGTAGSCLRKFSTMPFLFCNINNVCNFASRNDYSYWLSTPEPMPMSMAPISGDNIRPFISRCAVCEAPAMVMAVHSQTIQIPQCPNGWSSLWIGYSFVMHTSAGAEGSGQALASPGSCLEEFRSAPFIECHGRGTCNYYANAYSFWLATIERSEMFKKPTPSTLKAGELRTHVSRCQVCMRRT
T3 sequence (P08122 26-1707, chain 2 of 2): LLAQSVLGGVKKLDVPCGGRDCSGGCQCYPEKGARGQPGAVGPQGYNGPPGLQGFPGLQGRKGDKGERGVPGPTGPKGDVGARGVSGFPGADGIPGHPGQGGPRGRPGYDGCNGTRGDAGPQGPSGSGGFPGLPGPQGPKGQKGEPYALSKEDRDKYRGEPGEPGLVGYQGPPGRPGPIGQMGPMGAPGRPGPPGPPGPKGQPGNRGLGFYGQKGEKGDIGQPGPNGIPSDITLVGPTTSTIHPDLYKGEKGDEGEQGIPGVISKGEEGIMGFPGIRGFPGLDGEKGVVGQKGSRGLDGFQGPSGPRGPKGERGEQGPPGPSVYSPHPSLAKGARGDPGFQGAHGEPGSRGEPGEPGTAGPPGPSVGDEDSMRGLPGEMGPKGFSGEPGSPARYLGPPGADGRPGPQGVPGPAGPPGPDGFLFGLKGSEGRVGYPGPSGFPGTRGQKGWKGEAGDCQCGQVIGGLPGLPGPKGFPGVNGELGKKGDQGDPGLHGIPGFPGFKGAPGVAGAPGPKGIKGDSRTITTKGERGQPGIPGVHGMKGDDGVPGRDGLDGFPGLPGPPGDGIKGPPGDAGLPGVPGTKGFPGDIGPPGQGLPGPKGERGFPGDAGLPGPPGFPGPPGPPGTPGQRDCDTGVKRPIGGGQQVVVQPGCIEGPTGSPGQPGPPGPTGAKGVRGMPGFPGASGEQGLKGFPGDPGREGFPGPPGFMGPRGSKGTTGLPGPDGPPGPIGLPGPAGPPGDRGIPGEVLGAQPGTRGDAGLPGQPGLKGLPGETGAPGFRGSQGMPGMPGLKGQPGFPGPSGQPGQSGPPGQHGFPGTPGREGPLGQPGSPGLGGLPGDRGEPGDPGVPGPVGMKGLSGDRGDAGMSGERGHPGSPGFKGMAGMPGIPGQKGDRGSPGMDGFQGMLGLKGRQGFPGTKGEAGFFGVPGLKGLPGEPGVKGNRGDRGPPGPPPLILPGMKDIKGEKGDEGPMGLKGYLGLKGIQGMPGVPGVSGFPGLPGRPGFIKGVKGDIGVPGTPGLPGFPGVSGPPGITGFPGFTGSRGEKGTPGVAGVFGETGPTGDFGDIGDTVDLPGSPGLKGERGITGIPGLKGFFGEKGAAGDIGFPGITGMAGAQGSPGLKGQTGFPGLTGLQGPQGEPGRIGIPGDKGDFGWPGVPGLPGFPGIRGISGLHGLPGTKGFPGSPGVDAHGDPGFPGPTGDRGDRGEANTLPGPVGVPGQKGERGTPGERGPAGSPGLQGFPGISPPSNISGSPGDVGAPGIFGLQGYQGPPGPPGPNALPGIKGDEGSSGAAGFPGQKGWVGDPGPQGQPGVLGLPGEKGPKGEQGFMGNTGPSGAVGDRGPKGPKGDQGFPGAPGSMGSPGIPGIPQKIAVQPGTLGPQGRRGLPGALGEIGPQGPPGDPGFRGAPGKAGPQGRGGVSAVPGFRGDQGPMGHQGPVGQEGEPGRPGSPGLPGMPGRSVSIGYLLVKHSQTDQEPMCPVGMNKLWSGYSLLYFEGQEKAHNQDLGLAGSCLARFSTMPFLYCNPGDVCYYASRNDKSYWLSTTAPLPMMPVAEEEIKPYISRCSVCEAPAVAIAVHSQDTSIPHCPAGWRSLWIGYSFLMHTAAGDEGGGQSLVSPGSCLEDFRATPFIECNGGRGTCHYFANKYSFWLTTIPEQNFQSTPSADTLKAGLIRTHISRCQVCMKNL

B1: Peptide BHP3 (peptide)
peptide: Biotin-TQLRNKYTFLARARNALAVRTKQNIKS-OH
SMILES: CC[C@H](C)[C@H](NC(=O)[C@H](CC(N)=O)NC(=O)[C@H](CCC(N)=O)NC(=O)[C@H](CCCCN)NC(=O)[C@@H](NC(=O)[C@H](CCCNC(=N)N)NC(=O)[C@@H](NC(=O)[C@H](C)NC(=O)[C@H](CC(C)C)NC(=O)[C@H](C)NC(=O)[C@H](CC(N)=O)NC(=O)[C@H](CCCNC(=N)N)NC(=O)[C@H](C)NC(=O)[C@H](CCCNC(=N)N)NC(=O)[C@H](C)NC(=O)[C@H](CC(C)C)NC(=O)[C@H](Cc1ccccc1)NC(=O)[C@@H](NC(=O)[C@H](Cc1ccc(O)cc1)NC(=O)[C@H](CCCCN)NC(=O)[C@H](CC(N)=O)NC(=O)[C@H](CCCNC(=N)N)NC(=O)[C@H](CC(C)C)NC(=O)[C@H](CCC(N)=O)NC(=O)[C@@H](NC(=O)CCCC[C@@H]1SC[C@@H]2NC(=O)N[C@@H]21)[C@@H](C)O)[C@@H](C)O)C(C)C)[C@@H](C)O)C(=O)N[C@@H](CCCCN)C(=O)N[C@@H](CO)C(=O)O
notes: Designed from the 42 residue peptide BH-P; biotinylated synthetic peptide
no binding (tested: 5.0 mg/ml): all assays above

B2: Peptide 17x-3 (peptide)
peptide: Biotin-KTKATVLIKNKQKSKNALKQKIVLLSK-OH
SMILES: CC[C@H](C)[C@H](NC(=O)[C@H](CC(C)C)NC(=O)[C@@H](NC(=O)[C@@H](NC(=O)[C@H](C)NC(=O)[C@H](CCCCN)NC(=O)[C@@H](NC(=O)[C@H](CCCCN)NC(=O)CCCC[C@@H]1SC[C@@H]2NC(=O)N[C@@H]21)[C@@H](C)O)[C@@H](C)O)C(C)C)C(=O)N[C@@H](CCCCN)C(=O)N[C@@H](CC(N)=O)C(=O)N[C@@H](CCCCN)C(=O)N[C@@H](CCC(N)=O)C(=O)N[C@@H](CCCCN)C(=O)N[C@@H](CO)C(=O)N[C@@H](CCCCN)C(=O)N[C@@H](CC(N)=O)C(=O)N[C@@H](C)C(=O)N[C@@H](CC(C)C)C(=O)N[C@@H](CCCCN)C(=O)N[C@@H](CCC(N)=O)C(=O)N[C@@H](CCCCN)C(=O)N[C@H](C(=O)N[C@H](C(=O)N[C@@H](CC(C)C)C(=O)N[C@@H](CC(C)C)C(=O)N[C@@H](CO)C(=O)N[C@@H](CCCCN)C(=O)O)C(C)C)[C@@H](C)CC
notes: De novo designed 27-residue peptide, custom synthesized; the biotinylated peptides are used in every experiment; Self-assembles at higher concentrations
no binding (tested: 5.0 mg/ml): all assays above
